Laboratory results published in patent CN102127167A (SUZHOU IND PARK CHENJIAN ANTIBODY GROUP PHARMACEUTICAL DEV …, dated 2011).
“And” between values parts separate entries of the source, which are not always exact repeats. Equal entries are not always repeated.

Assays:
人TNFα [1] = biological target: T1, 人TNFα (human, UniProt P01375 77-233); assay: cell-based or functional assay
人TNFα [2] = biological target: T1, 人TNFα; assay: cell-based or functional assay; remark: listed apart in the source
人TNFα [3] = biological target: T1, 人TNFα; assay: SPR (Biacore), TNFa coupled to the chip, antibody as analyte
人TNFα [4] = biological target: T1, 人TNFα; assay: ELISA, plate coated at 0.1 ug/well, antibody dilution series

T1 sequence (P01375 77-233 limits assumed): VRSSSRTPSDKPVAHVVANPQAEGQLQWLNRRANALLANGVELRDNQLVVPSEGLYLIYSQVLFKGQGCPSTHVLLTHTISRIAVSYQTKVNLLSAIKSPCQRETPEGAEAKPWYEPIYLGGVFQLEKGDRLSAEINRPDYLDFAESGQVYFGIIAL

Row | Binder | IC50 relative to humira, L929细胞保护试验 (人TNFα [1]) | neutralising activity relative to humira, L929细胞保护试验 (人TNFα [1]) | IC50(pM), L929细胞保护试验 (人TNFα [2]) | IC50(pM), L929细胞保护试验, 平均值 (人TNFα [2]) | Kd (人TNFα [3]) | koff (人TNFα [3]) | kon (人TNFα [3]) | lowest detected concentration relative to humira (人TNFα [4])
1 | 抗人TNFa抗体-01 (antibody, human IgG1, kappa, also called 抗人TNFa-01; pCI-TNF-01) heavy: not shown light: EIVLTQSPDFQSVTPKEKVTITCRASQFVGYSIHWYQQKPDQSPKLLIKYASESRSGVPSRFSGSGSGTDFTLTINSLEAEDAATYYCQQSHSWHFTFGQGTKLEIKRTVAAPSVFIFPPSDEQLKSGTASVVCLLNNFYPREAKVQWKVDNALQSGNSQESVTEQDSKDSTYSLSSTLTLSKADYEKHKVYACEVTHQGLSSPVTKSFNRGEC | ~0.2 fold of humira IC50 | ~5 fold of humira | 0.56 pM and 0.938 pM and 0.46 pM | 0.51 pM | 0.326 nM | 0.000185 s⁻¹ | 568000 M⁻¹ s⁻¹ | 0.5 fold of humira
2 | 抗人TNFa抗体-02 (antibody, human IgG1, kappa, Full-length human IgG1 made in CHO cells; Same doubt about plain or PEGylated form as for m1; also called 抗人TNFa-02; pCI-TNF-02) heavy: not shown light: EIVLTQSPDFQSVTPKEKVTITCRASQFVGYSIHWYQQKPDQSPKLLIKYASESRSGVPSRFSGSGSGTDFTLTINSLEAEDAATYYCQQSHSWHFTFGQGTKLEIKRTVAAPSVFIFPPSDEQLKSGTASVVCLLNNFYPREAKVQWKVDNALQSGNSQESVTEQDSKDSTYSLSSTLTLSKADYEKHKVYACEVTHQGLSSPVTKSFNRGEC | ~0.1 fold of humira IC50 | ~10 fold of humira | 0.34 pM and 0.25 pM and 0.234 pM | 0.275 pM | 0.33 nM | 0.000188 s⁻¹ | 571000 M⁻¹ s⁻¹ | 0.5 fold of humira
